The record followed here is the supplement of paper PMC9170038.

The test system of the series is MS2 coat protein. Briefly: apparent KD of MS2 coat protein; designed switch direction (-1 OFF switch, 1 ON switch): -1; higher = weaker reporter binding. The method, boiled down: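 SNAP-549-labelled MS2 coat protein was titrated, doubling from 0.7 or 1.5 nM to 3 µM, over designed RNA switches transcribed on Illumina chips by stalled E. coli RNA polymerase. Runs were done without input, with 200 uM small-molecule ligand, or with an oligonucleotide input. Apparent KD is the per-design median over clusters of curve-fitted normalised fluorescence.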

[1] abbreviates: input ligand: microRNA oligo, concentration not stated.
The mark [2] stands for this setting: Eterna round: R95, input ligand: microRNA oligo, concentration not stated.
[3] abbreviates: Eterna round: R95, input ligand: FMN 200 uM.
Where [4] appears, read: Eterna round: R95, input ligand: none.

Regarding “UAUAUAUAGUAAGGAUAUGUAUAUAUGUUAUAAACAGAAGGUACUGACAUGAGGAUCACCCAUGUUUUAGUGUGGGCAUGUAGA [JMF's solution 59] (Eterna round: R96, puzzle: Exclusion NG 1)”, the “apparent KD of MS2 coat protein” value under setting [1] was determined as 53.8 nM.

For “UAUAUGUCAGGAUAUUAGUAGUAAAUAAAUAAAAUUAUUACUGAGAAGGGACAUGAGGAUCACCCAUGUACCUU [Salish 062 v32] (Eterna round: R97, puzzle: Exclusion 4)”, the “apparent KD of MS2 coat protein” value was found to be 16.1 nM (input ligand: FMN 200 uM) and 15.5 nM (input ligand: none).

As for “UAUCAUGUAGGAUAUACGUAGCUAUGACCCUCGAGAACUAUACAUGAGGAUCACCCAUGUAGAAGGGCGACUUU [Eternabot (L1) Solution 34] (Eterna round: R97, puzzle: Exclusion 2)”, the “apparent KD of MS2 coat protein” value reads like this: (input ligand: FMN 200 uM) 21.3 nM; (input ligand: none) 17.2 nM.

Consider “UAUCCACAUGAGGAUCACCCAUGUGAGGAUAUGAUACUAUGUACUUCGGUACAUAGUAUCAGAAGGCACAGGUC [Ex1-3: 57] (puzzle: Exclusion 1)”, for which the “apparent KD of MS2 coat protein” value under setting [2] was 20.3 nM.

Consider “UAUCGGCGGACCGAGGCUUUUUGCUCGUCUUAUGCUACGACAUGAGGAUCACCCAUGUGGUGGUGGUCCGUUGUAGU [JL ViennaUCT Bitein mod 8] (puzzle: Sensor v3, turn-off variant 2)”, for which the “apparent KD of MS2 coat protein” value was 123 nM under setting [3], 15.2 nM under setting [2] and 107 nM under setting [4].

Turning to “UAUGGUAAAGUCAGGAUAUACGUGCAGAAUUCUAGGUAGAAGGGACAUGAGGAUCACCCAUGUAUGGUAGUGUU [Ex4 #44] (Eterna round: R97, puzzle: Brourd's mod of Exclusion 4)”, the “apparent KD of MS2 coat protein” value is 146 nM (input ligand: FMN 200 uM) and 104 nM (input ligand: none).

As for “UAUGUGUGAGGAUAUGGUAAAGAUAAGAUGAUGAAAGAACUCCAGAAGGCACAUGAGGAUCACCCAUGUAGAUG [JL-ex4-2.10 Jieux mod] (puzzle: Exclusion 4)”, the “apparent KD of MS2 coat protein” value runs as follows: under setting [3], 53.8 nM; under setting [2], 37.2 nM; under setting [4], 32.2 nM.

For the sequence “UAUGUUGUUGUGAGGAUAUACUUAGUUUGACCGUAGUAGAAGGCACAUGAGGAUCACCCAUGUAGAUUUUUGGU [JR_BME4_Sub007] (puzzle: Brourd's mod of Exclusion 4)”, under setting [2], the “apparent KD of MS2 coat protein” value amounted to 9.49 nM.

“UAUUAAACAUAGGAUAUCGAAUAUAUCAUUUAACGAGAAGGAUGAACAUGAGGAUCACCCAUGUGGUAUCAUGG [Mat - Exclusion 6 - JL Mod - D13] (puzzle: Exclusion 6)”: the “apparent KD of MS2 coat protein” value runs as follows: under setting [3], 196 nM; under setting [2], 269 nM; under setting [4], 410 nM.

In the case of “UAUUAACAAGUAAGAUCCCACAUGAGGAUCACCCAUGUGCUCGUCUUAUAAGGUACUGUGACGAAAGUCACGGUACC [Dup of Eli's R95 Sensor 3, v1 - 87] (Eterna round: R97, puzzle: Sensor, turn-off variant 1)”, the “apparent KD of MS2 coat protein” value (input ligand: FMN 200 uM) worked out at 16.3 nM and the “apparent KD of MS2 coat protein” value (input ligand: none) amounted to 16.5 nM.

In the case of “UAUUAACAAGUAAGAUCCCACAUGAGGAUCACCCAUGUGCUCGUCUUAUAAGGUACUGUGACGAAAGUCACGGUACC [Sensor 3, v1 - 87] (Eterna round: R96, puzzle: Sensor v3, turn-off variant 1)”, the “apparent KD of MS2 coat protein” value is 13.8 nM (input ligand: FMN 200 uM), 367 nM under setting [1] and 16.9 nM (input ligand: none).

In the case of “UAUUAACAAGUAAGAUCCCACAUGAGGAUCACCCAUGUGCUCGUCUUAUAAGGUACUGUGACGAAAGUCACGGUACC [Sensor 3, v1 - 87] (puzzle: Sensor v3, turn-off variant 1)”, the “apparent KD of MS2 coat protein” value under setting [3] came out at 16.9 nM, the “apparent KD of MS2 coat protein” value under setting [2] worked out at 953 nM and the “apparent KD of MS2 coat protein” value under setting [4] was found to be 13 nM.

Regarding “UAUUAGCAAGCAAAUGGGUACAUGAGGAUCACCCAUGUGCUCGUCUUAUAAGGUACUGUGACGACAGUCACGGUACC [mod--Eli4] (Eterna round: R97, puzzle: Sensor, turn-off variant 1)”, the “apparent KD of MS2 coat protein” value is 24.5 nM (input ligand: FMN 200 uM) and 25.3 nM (input ligand: none).

For “UAUUAGCAAGCAAGAUCCCACAUGAGGAUCACCCAUGUGCUCGUCUUAUAAGGUACUGUGACGAGAGUCACGGUACC [Mat - Sensor, turn-off var - Eli Mod - D47] (Eterna round: R97, puzzle: Sensor, turn-off variant 1)”, the “apparent KD of MS2 coat protein” value reads like this: (input ligand: FMN 200 uM) 51.4 nM; (input ligand: none) 54.2 nM.

As to “UAUUAGCAAGCGAGAUCCCACAUGAGGAUCACCCAUGUAAUAAGCAUCCAGAAUUACUGGGUGCAAGCUCGUCUUAU [Winner reversed engineered 10] (Eterna round: R97, puzzle: Sensor, turn-off variant 1)”, the “apparent KD of MS2 coat protein” value runs as follows: (input ligand: FMN 200 uM) 45.4 nM; (input ligand: none) 42.9 nM.

Consider “UAUUAGCAAGCGAGAUCCCACAUGAGGAUCACCCAUGUGCUCGCAUCCAGAAUUACUGGGUGCAAAGCUCGUCUUAU [Winner reversed engineered 8] (Eterna round: R97, puzzle: Sensor, turn-off variant 1)”, for which the “apparent KD of MS2 coat protein” value reads like this: (input ligand: FMN 200 uM) 23.1 nM; (input ligand: none) 23.3 nM.

As for “UAUUAGCAAGCGAGAUCCGACAUGAGGAUCACCCAUGUGCUCGUCUUAUAAGGGAGGGAGGGAAAACCCUCCCUCCC [Elimod 9 - Jieux - Sensor, turn-off variant 1] (Eterna round: R97, puzzle: Sensor, turn-off variant 1)”, the “apparent KD of MS2 coat protein” value runs as follows: (input ligand: FMN 200 uM) 19.5 nM; (input ligand: none) 21.2 nM.

For the sequence “UAUUAGCAAGCGAGAUCCUACAUGAGGAUCACCCAUGUGCUCGUCUUAUAAGGUACUGUGACGAAAGUCACGGUACC [Eli 91 v36] (Eterna round: R97, puzzle: Sensor, turn-off variant 1)”, the “apparent KD of MS2 coat protein” value by setting is: (input ligand: FMN 200 uM) 18.2 nM; (input ligand: none) 27.5 nM.

On to “UAUUAGCAAGCGAGGUCCCACAUGAGGAUCACCCAUGUGCUCGUCUUAUAAGGUACUGUGACGAAAGUCACGGUACC [Sensor 3, v1 - 91 v8] (Eterna round: R97, puzzle: Sensor, turn-off variant 1)”, for which the “apparent KD of MS2 coat protein” value is, setting by setting: (input ligand: FMN 200 uM) 14.7 nM; (input ligand: none) 13.1 nM.

As for “UAUUAGUGAGGAUAUGAGUCGUAGAACAAUAGUACUACGUCUCAGAAGGCACAUGAGGAUCACCCAUGUUCCUU [Fiskers Ex 4 Super Stable 44 mod 35] (puzzle: Exclusion 4)”, the “apparent KD of MS2 coat protein” value under setting [2] was 13.6 nM.

“UAUUAGUGAGGAUAUGAGUCGUAGAACAAUAGUACUACGUCUCAGAAGGCACAUGAGGAUCACCCAUGUUCCUU [Mod of Fisker - Jieux - Exclusion 4] (Eterna round: R97, puzzle: Exclusion 4)”: the “apparent KD of MS2 coat protein” value reads like this: (input ligand: FMN 200 uM) 71.3 nM; (input ligand: none) 16.1 nM.

“UAUUAGUGAGGAUAUGAGUCGUAGAACAAUAGUACUACGUCUCAGAAGGUACAUGAGGAUCACCCAUGUUUCUC [Fiskers Ex 4 Super Stable 44 mod 33] (puzzle: Exclusion 4)”: the “apparent KD of MS2 coat protein” value under setting [2] stood at 18.8 nM.

In the case of “UAUUAUAAUGUAGGAUAUCUGCACGUUUAGUGCAGAGAAGGACAUGAGGAUCACCCAUGUAUAGUAGCUUCGGCUACAUUAUUU [ENG1-B2] (Eterna round: R96, puzzle: Exclusion NG 1)”, the “apparent KD of MS2 coat protein” value reads like this: (input ligand: FMN 200 uM) 103 nM; under setting [1], 52.2 nM; (input ligand: none) 68.9 nM.

Regarding “UAUUCUGGAGGAUAUACAUGAGGAUCACCCAUGUAAAUUGUACAGAGCGGGAGUCUAUGUAGAAGGCUAGGACA [EX3 C.2] (Eterna round: R97, puzzle: Exclusion 3)”, the “apparent KD of MS2 coat protein” value (input ligand: FMN 200 uM) was determined as 60.8 nM and the “apparent KD of MS2 coat protein” value (input ligand: none) was 19.1 nM.

For the sequence “UAUUUACAUGAGGAUCACCCAUGUCAGGAUAUGCGUCGAUCGUCGAAAGACGAUAGCCGCAGAAGGGACAAUAU [LRO-Excl01-20 mod derived from EliFisker 4.24] (Eterna round: R97, puzzle: Exclusion 1)”, the “apparent KD of MS2 coat protein” value (input ligand: FMN 200 uM) came to 246 nM and the “apparent KD of MS2 coat protein” value (input ligand: none) came to 83.1 nM.

For “UAUUUAUAGCAAGGAUAUGAUUAUUAUUAUUUAUCAGAAGGUGCACAUGAGGAUCACCCAUGUUUUAUAUAUAAUAAUUUAAUU [Title] (Eterna round: R96, puzzle: Exclusion NG 1)”, the “apparent KD of MS2 coat protein” value under setting [1] amounted to 82.5 nM.

For the sequence “UAUUUAUAUGAAGGAUAUACUUAACAUGAGGAUCACCCAUGUGGUGUUGUGAGUGAGUGAGUUUAGUAGAAGGUCAAGUAUUUU [JMF's solution 53] (Eterna round: R96, puzzle: Exclusion NG 2)”, the “apparent KD of MS2 coat protein” value (input ligand: FMN 200 uM) stood at 844 nM, the “apparent KD of MS2 coat protein” value under setting [1] came out at 378 nM and the “apparent KD of MS2 coat protein” value (input ligand: none) came out at 456 nM.

“UAUUUGCAAGCGAGAUCCCACAUGAGGAUCACCCAUGUUCUUGGAAAGUACAGAAUUACUGUACAAGCUCGUCUUAU [Winner reversed engineered 32] (Eterna round: R97, puzzle: Sensor, turn-off variant 1)”: the “apparent KD of MS2 coat protein” value by setting is: (input ligand: FMN 200 uM) 22.1 nM; (input ligand: none) 25.7 nM.

With “UCAAAGUCAGGAUAUACAUGAGGAUCACCCAUGUAAAAUUUUAAUUUAAUUUGAAGGUGUAGAAGGGACAAACC [Ex3 #33] (Eterna round: R97, puzzle: Exclusion 3)”, the “apparent KD of MS2 coat protein” value (input ligand: FMN 200 uM) came to 18.3 nM and the “apparent KD of MS2 coat protein” value (input ligand: none) was determined as 31.6 nM.

For “UCAAGCUUUAAGCGUGUGAACAUGAGGAUCACCCAUGUAUUUUUGGUUAGGAGUUCUGUAAGGGAUGCUCGUCUUAU [JR_SWV3TOV1_Sub093] (puzzle: Sensor v3, turn-off variant 1)”, the “apparent KD of MS2 coat protein” value reads like this: under setting [3], 37.4 nM; under setting [2], 47.5 nM; under setting [4], 50.7 nM.
